Reference: patent publication US20140096274A1 (published 2014)

T1: murine RANKL heterodimeric variant mD2 (mouse Dimer 2) (mouse, UniProt O35235 160-316; O35235 160-316)
T1 construct: range 160-316; Heterodimer of monomer A (His-tagged) and monomer B, co-expressed in E. coli; also called RANKL dimer 2; dRANKL D2; not shown: hexahistidine-tag fused to monomer A
T1 sequence (looked up) 1: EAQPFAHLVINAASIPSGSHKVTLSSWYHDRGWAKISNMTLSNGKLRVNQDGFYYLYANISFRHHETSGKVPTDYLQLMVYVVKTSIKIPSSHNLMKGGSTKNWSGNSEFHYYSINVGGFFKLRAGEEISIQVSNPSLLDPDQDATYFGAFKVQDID
T1 sequence (looked up) 2: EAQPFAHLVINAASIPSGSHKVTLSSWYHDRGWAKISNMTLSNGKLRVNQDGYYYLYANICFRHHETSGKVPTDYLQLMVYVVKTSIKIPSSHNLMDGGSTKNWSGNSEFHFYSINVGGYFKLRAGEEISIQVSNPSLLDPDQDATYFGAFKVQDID

T2: murine RANKL heterodimeric variant mD1 (mouse Dimer 1) (mouse, UniProt O35235 160-316; O35235 160-316)
T2 construct: range 160-316; Heterodimer of monomer A (His-tagged) and monomer B, co-expressed in E. coli; also called RANKL dimer 1; RANK-L Dimer 1; not shown: hexahistidine-tag fused to monomer A
T2 sequence (looked up) 1: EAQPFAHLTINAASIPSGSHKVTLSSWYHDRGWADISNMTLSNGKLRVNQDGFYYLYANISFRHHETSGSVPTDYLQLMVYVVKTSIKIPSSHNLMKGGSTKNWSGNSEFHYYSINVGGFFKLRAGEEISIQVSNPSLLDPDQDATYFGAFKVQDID
T2 sequence (looked up) 2: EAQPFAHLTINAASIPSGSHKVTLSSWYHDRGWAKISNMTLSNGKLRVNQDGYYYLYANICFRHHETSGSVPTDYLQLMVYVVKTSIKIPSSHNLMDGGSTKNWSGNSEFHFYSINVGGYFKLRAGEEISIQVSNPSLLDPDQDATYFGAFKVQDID

T3: human RANK-Fc (human, UniProt Q9Y6Q6 30-212)
T3 construct: also called hRANK-Fc; hRANK-FC; not shown: Fc part of the bought fusion; not described
T3 sequence (looked up): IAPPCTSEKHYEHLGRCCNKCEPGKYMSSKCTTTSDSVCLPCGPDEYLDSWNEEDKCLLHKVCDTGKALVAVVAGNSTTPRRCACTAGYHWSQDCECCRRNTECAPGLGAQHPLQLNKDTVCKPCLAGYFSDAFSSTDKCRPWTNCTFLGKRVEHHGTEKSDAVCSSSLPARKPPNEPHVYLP

B1: murine RANK-Fc (Fc fusion, mouse, UniProt O35305 31-214, looked up)
chain: VTPPCTQERHYEHLGRCCSRCEPGKYLSSKCTPTSDSVCLPCGPDEYLDTWNEEDKCLLHKVCDAGKALVAVDPGNHTAPRRCACTAGYHWNSDCECCRRNTECAPGFGAQHPLQLNKDTVCTPCLLGFFSDVFSSTDKCKPWTNCTLLGKLEAHQGTTESDVVCSSSMTLRRPPKEAQAYLPS
notes: also called mRANK-Fc; mRANK-FC; not shown: Fc part of the bought fusion; not described

What was measured:
[1] = target: T1, murine RANKL heterodimeric variant mD2 …; assay: SPR, mRANK-Fc captured at low density on C1 chip, 1:1 Langmuir fit, mean of three experiments
Experimental: (§1) SPR measurements were performed using ˜1500-2000 RU of captured mRANK-Fc on the surface of a CM5 sensor chip (FIGS. 15B and C). This is a density that results in a mean ratio of RANKL:RANK of approx 1:3 (52). […] (Table 5, below) In contrast, the ratio of binding of RANKL variants mD1 and mD2 to mRANK-Fc seems hardly to be affected by receptor density (Table 5). The values obtained after injecting 500 nM of the dimeric variants correlate to binding of 1.5 monomeric subunits by mD1 and 1.6 monomeric subunits by mD2.
(§2) Kinetic binding parameters were also measured for mD1 and mD2 binding to mRANK-FC in real time using SPR using murine RANKL-WT as a control (FIG. 15; table 8). RANKL dimer binding curves to mRANK-Fc captured at low density on the surface of a C1 sensorchip were recorded using concentrations ranging from 100 pM to 562 nM. At very low receptor density, RANKL proteins bind only one receptor molecule, allowing the data to be fitted to a Langmuir 1:1 interaction model (29). RANKL WT needed a very low density (<20 resonance units (RU)) to come close to a 1:1 ratio (FIG. 3A). […] Maximum binding of 5.5 RU is reached, which is slightly lower than the expected Rₘₐₓ value of 6.8 RU for a 1:1 ratio, but definitely larger than 3.4 RU, the Rₘₐₓ value expected for a binding ratio of 2 molecules of RANK per flag-mRANKL WT trimer. Similar to mRANKL WT, binding of RANKL mD1 or mD2 to mRANK-Fc results in slightly lower Rₘₐₓ values than expected for a 1:1 binding ratio: 24 RU D1 compared to 26 RU, and 20 RU D2 compared to 23 RU (FIG. 15A). These binding ratio's could be reached with mD1 and mD2 at densities of mRANK-Fc of <50 RU. The approximate 1:1 binding of RANKL proteins to mRANK-Fc allows fitting the data to the 1:1 Langmuir binding model.

[2] = target: T2, murine RANKL heterodimeric variant mD1 …; assay: as above
Experimental: as §1, §2

[3] = target: T1, murine RANKL heterodimeric variant mD2 …; assay: SPR single cycle kinetics, mRANK-Fc captured at 20-40 RU, 1:1 fit
Experimental: (§3) Considering the high similarity between human RANKL and murine RANKL (>88%) the murine dimers were also tested for hRANK binding. Binding to hRANK-Fc and mRANK-Fc (both from R&D Systems) was recorded for five consecutive concentrations of murine flag RANKL WT, D1 (mD1) or D2 (mD2) (˜0.3-15 nM) using SPR with a single cycle kinetics based approach. The capture level of mRANK-Fc and hRANK-Fc was low (20-40 RU) in order to ensure 1:1 binding. Both WT and the D1 and D2 dimeric variants bound with high affinity towards the mRANK receptor and to the human RANK receptor (FIG. 16: Table 8).

[4] = target: T2, murine RANKL heterodimeric variant mD1 …; assay: as above
Experimental: as §3

[5] = target: B1; assay: SPR (Biacore T100) single cycle kinetics, mRANK-Fc captured on protein A at 200 RU, 1:1 fit
Experimental: (§4) FIG. 35. Binding of dimeric human RANKL variants and human RANKL WT towards murine RANK at 37° C. (left) or human RANK (right) receptor. Receptors were captured at a level of 200 RU using a Protein A (Sigma) modified surface of a CM5 chip (Biacore GE Lifesciences). Receptor binding curves of purified human hD1.3 and hD2.3 variants and human RANKL WT (E. coli produced, R&D systems) were recorded in real time using the single cycle kinetics method (Biacore) using a Biacore T100 (Biacore, GE Lifescience). Ligands were injected in 5 consecutive injection from 1 nM to 100 nM. After subtracting the signal from the reference channel and buffer injections the resulting binding curves were fitted to a 1:1 interaction model using the BiaEvaluation software (Biacore GE Lifescience). Flow rate was 50 ul/min and protein A surface was regenerated using 10 mM Glycine pH 2 solution, murine RANK-Fc and human RANK-Fc were obtained from R&D systems. Running buffer was HBS-EP+ (Biacore GE Lifescience).

[6] = target: T3, human RANK-Fc; assay: SPR (Biacore T100) single cycle kinetics, hRANK-Fc captured on protein A at 200 RU, 1:1 fit
Experimental: as §4

Ka [1] [M⁻¹] | Kd [1] [nM] | koff [1] [s⁻¹] | kon [1] [M⁻¹ s⁻¹] | Ka [2] [M⁻¹] | Kd [2] [nM] | koff [2] [s⁻¹] | kon [2] [M⁻¹ s⁻¹] | Kd [3] [nM] | koff [3] [s⁻¹] | kon [3] [M⁻¹ s⁻¹] | Kd [4] [nM] | koff [4] [s⁻¹] | kon [4] [M⁻¹ s⁻¹] | Kd [5] [nM] | koff [5] [s⁻¹] | kon [5] [M⁻¹ s⁻¹] | Kd [6] [nM] | koff [6] [s⁻¹] | kon [6] [M⁻¹ s⁻¹] | Binder
2.1e+11 | 0.01 | 4.3e-05 | 4.9e+06 | 2.7e+10 | 0.146 | 0.00015 | 5.8e+06 | 0.00855 | 5.76e-05 | 6.73e+06 | 0.0439 | 0.000247 | 5.93e+06 |  |  |  |  |  |  | B1
 |  |  |  |  |  |  |  |  |  |  |  |  |  | 0.136 | 0.000142 | 1.04e+06 | 0.267 | 0.00023 | 861000 | trimeric human RANKL WT (E. coli produced, R&D Systems) (ligand, UniProt O14788 140-317, looked up, Bought protein; also called hWT) IRAEKAMVDGSWLDLAKRSKLEAQPFAHLTINATDIPSGSHKVSLSSWYHDRGWAKISNMTFSNGKLIVNQDGFYYLYANICFRHHETSGDLATEYLQLMVYVTKTSIKIPSSHTLMKGGSTKYWSGNSEFHFYSINVGGFFKLRSGEEISIEVSNPSLLDPDQDATYFGAFKVRDID
 |  |  |  |  |  |  |  |  |  |  |  |  |  | 0.211 | 0.00019 | 899000 | 0.345 | 0.000275 | 798000 | human RANKL heterodimeric variant hD1-3 (ligand, Heterodimer expressed in E. coli BLR (DE3); copies: 1 + 1) chain 1: MGSSHHHHHHSQDPEAQPFAHLTINATDIPSGSHKVSLSSWYHDRGWADISNMTFSNGKLIVNQDGFYYLYANISFRHHETSGDLATEYLQLMVYVTKTSEKIPSSHTLMKGGSTKYWSGNSEFHYYSINVGGFFKLRSGEEISIEVSNPSLLDPDQDATYFGAFKVRDID chain 2: MEAQPFAHLTINATDIPSGSHKVSLSSWYHDRGWAKISNMTFSNGKLIVNQDGYYYLYANICFRHHETSGDLATEYLQLMVYVTKTSEKIPSSHTLMDGGSTKYWSGNSEFHFYSINVGGYFKLRSGEEISIEVSNPSLLDPDQDATYFGAFKVRDID
 |  |  |  |  |  |  |  |  |  |  |  |  |  | 0.0504 | 8.32e-05 | 1.65e+06 | 0.0766 | 8.87e-05 | 1.16e+06 | human RANKL heterodimeric variant hD2-3 (ligand, Heterodimer expressed in E. coli BLR (DE3); also called hRANKL D2.3; copies: 1 + 1) chain 1: MGSSHHHHHHSQDPEAQPFAHLVINATDIPSGSHKVSLSSWYHDRGWAKISNMTFSNGKLIVNQDGFYYLYANISFRHHETSGKLATEYLQLMVYVTKTSEKIPSSHTLMKGGSTKYWSGNSEFHYYSINVGGFFKLRSGEEISIEVSNPSLLDPDQDATYFGAFKVRDID chain 2: MEAQPFAHLVINATDIPSGSHKVSLSSWYHDRGWAKISNMTFSNGKLIVNQDGYYYLYANICFRHHETSGKLATEYLQLMVYVTKTSEKIPSSHTLMDGGSTKYWSGNSEFHFYSINVGGYFKLRSGEEISIEVSNPSLLDPDQDATYFGAFKVRDID
